Data: US20210246166A1 (Bayer, published 2021)
Numbered stars: 1 amine (or outer) side, 2 acyl side, 3 side chain; on linkers, the order of the positions; unused ones are H or OH. Bridge positions count the residues as written; N and C are the ends. Square brackets hold non-standard residues; d marks the D form. Ends that are not written are not given here. * marks the point of attachment. (N-Benzyl)D = (2S)-2-Amino-4-(benzylamino)-4-oxobutanecarboxylic acid, O=C(C[C@H](N[*:1])C(=O)[*:2])NCc1ccccc1; βDap = *Dap: Dap linked through its additional amino group, O=C([C@H](CN[*:1])N[*:3])[*:2]; X4 = (1S,3R)‑3‑(Amino)cyclopentanecarboxylic acid, O=C([C@H]1CC[C@@H](N[*:1])C1)[*:2]; X9 = (S)‑3‑(1-Pyrrolidine-2-yl)‑propionic acid, O=C(CC[C@@H]1CCCN1[*:1])[*:2]; X11 = (S)‑Piperidine‑3‑carboxylic acid, O=C([C@H]1CCCN([*:1])C1)[*:2]; X14 = (2,4-dioxoimidazolidin-1-yl)acetic acid, O=C1CN(CC(=O)*)C(=O)N1; Nip(3R) = O=C([C@@H]1CCCN([*:1])C1)[*:2]; Oic = O=C(O)[C@@H]1C[C@@H]2CCCC[C@@H]2N1; βPro(3S) = O=C([C@H]1CCN([*:1])C1)[*:2]; Pen = CC(C)(S)[C@H](N)C(=O)O; β3hP = O=C(O)C[C@@H]1CCCN1; NMeA = CN[C@@H](C)C(=O)O; Dap = NC[C@H](N)C(=O)O; Ahx = NCCCCCC(=O)O; Sar = CNCC(=O)O

Assays:
[1] = molecular target: T1, recombinant rat MASP1 active protease (amino acids 302-704, C-terminal His Tag) (rat, UniProt Q8CHN8 302-704); assay: cell-based or functional assay
T1 sequence: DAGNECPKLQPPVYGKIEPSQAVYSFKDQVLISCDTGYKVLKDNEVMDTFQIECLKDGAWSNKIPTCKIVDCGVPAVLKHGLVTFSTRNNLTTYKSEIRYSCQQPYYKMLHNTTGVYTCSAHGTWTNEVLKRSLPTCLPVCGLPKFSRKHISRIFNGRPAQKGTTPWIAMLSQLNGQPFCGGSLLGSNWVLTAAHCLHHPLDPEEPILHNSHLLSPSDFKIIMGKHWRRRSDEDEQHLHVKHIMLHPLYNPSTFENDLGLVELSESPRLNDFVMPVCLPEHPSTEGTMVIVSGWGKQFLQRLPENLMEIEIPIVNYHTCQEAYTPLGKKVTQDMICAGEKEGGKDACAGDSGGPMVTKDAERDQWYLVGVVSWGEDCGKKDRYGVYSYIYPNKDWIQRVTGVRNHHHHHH

[2] = molecular target: recombinant rat MASP2 active protease (amino acids 296-685, C-terminal His Tag) (rat, UniProt Q9JJS8 296-685); assay: cell-based or functional assay
Chain of recombinant rat MASP2 active protease (amino acids 296-685, C-terminal His Tag) (Q9JJS8 other isoform, or with tags, fused parts or gaps limits assumed): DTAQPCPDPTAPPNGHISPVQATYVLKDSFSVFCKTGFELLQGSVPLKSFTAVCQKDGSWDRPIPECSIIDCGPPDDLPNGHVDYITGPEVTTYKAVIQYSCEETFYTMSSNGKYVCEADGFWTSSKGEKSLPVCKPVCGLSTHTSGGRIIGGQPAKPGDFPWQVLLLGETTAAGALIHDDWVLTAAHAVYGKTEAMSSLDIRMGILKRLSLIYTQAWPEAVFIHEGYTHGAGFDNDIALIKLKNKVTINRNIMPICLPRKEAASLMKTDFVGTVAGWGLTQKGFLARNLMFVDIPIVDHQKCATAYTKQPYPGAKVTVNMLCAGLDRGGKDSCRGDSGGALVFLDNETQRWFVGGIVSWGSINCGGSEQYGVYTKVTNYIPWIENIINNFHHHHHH

Binder | rat MASP1 IC50 [1] [nM] | rat MASP2 IC50 [2] [nM]
[Sar]ICSRSLP[Oic]I[Pen]IP[X4]-OH (disulfide 3-11; N-terminus assumed; SMILES CC[C@H](C)[C@H](NC(=O)CNC)C(=O)N[C@H]1CSSC(C)(C)[C@@H](C(=O)N[C@H](C(=O)N2CCC[C@H]2C(=O)N[C@@H]2CC[C@H](C(=O)O)C2)[C@@H](C)CC)NC(=O)[C@H]([C@@H](C)CC)NC(=O)[C@@H]2C[C@@H]3CCCC[C@@H]3N2C(=O)[C@@H]2CCCN2C(=O)[C@H](CC(C)C)NC(=O)[C@H](CO)NC(=O)[C@H](CCCNC(=N)N)NC(=O)[C@H](CO)NC1=O) [Example 452: ((N-Me)G)-IC+SRSLP-(Oic)-I-(Pen)+IP-((1S,3R)-3-(Amino)cyclopentanecarboxylic acid)-OH] | 36 | 37
[Sar]ICSRSLP[Oic]I[Pen]IP[X9]-OH (disulfide 3-11; N-terminus assumed; SMILES CC[C@H](C)[C@H](NC(=O)CNC)C(=O)N[C@H]1CSSC(C)(C)[C@@H](C(=O)N[C@H](C(=O)N2CCC[C@H]2C(=O)N2CCC[C@H]2CCC(=O)O)[C@@H](C)CC)NC(=O)[C@H]([C@@H](C)CC)NC(=O)[C@@H]2C[C@@H]3CCCC[C@@H]3N2C(=O)[C@@H]2CCCN2C(=O)[C@H](CC(C)C)NC(=O)[C@H](CO)NC(=O)[C@H](CCCNC(=N)N)NC(=O)[C@H](CO)NC1=O) [Example 453: ((N-Me)G)-IC+SRSLP-(Oic)-I-(Pen)+IP-((S)-3-(1-Pyrrolidine-2-yl)-propionic acid)-OH] | 38 | 32
[Sar]ICSRSLP[Oic]I[Pen]IPN-OH (disulfide 3-11; N-terminus assumed; SMILES CC[C@H](C)[C@H](NC(=O)CNC)C(=O)N[C@H]1CSSC(C)(C)[C@@H](C(=O)N[C@H](C(=O)N2CCC[C@H]2C(=O)N[C@@H](CC(N)=O)C(=O)O)[C@@H](C)CC)NC(=O)[C@H]([C@@H](C)CC)NC(=O)[C@@H]2C[C@@H]3CCCC[C@@H]3N2C(=O)[C@@H]2CCCN2C(=O)[C@H](CC(C)C)NC(=O)[C@H](CO)NC(=O)[C@H](CCCNC(=N)N)NC(=O)[C@H](CO)NC1=O) [Example 454: ((N-Me)G)-IC+SRSLP-(Oic)-I-(Pen)+IPN-OH] | 127 | 79
[Sar]ICSRSLP[Oic]I[Pen]IP[β3hP]-OH (disulfide 3-11; N-terminus assumed; SMILES CC[C@H](C)[C@H](NC(=O)CNC)C(=O)N[C@H]1CSSC(C)(C)[C@@H](C(=O)N[C@H](C(=O)N2CCC[C@H]2C(=O)N2CCC[C@H]2CC(=O)O)[C@@H](C)CC)NC(=O)[C@H]([C@@H](C)CC)NC(=O)[C@@H]2C[C@@H]3CCCC[C@@H]3N2C(=O)[C@@H]2CCCN2C(=O)[C@H](CC(C)C)NC(=O)[C@H](CO)NC(=O)[C@H](CCCNC(=N)N)NC(=O)[C@H](CO)NC1=O) [Example 455: ((N-Me)G)-IC+SRSLP-(Oic)-I-(Pen)+IP-(beta-homo-P)-OH] | 41 | 32
[Sar]ICSRSLP[Oic]I[Pen]IP[βPro(3S)]-OH (disulfide 3-11; N-terminus assumed; SMILES CC[C@H](C)[C@H](NC(=O)CNC)C(=O)N[C@H]1CSSC(C)(C)[C@@H](C(=O)N[C@H](C(=O)N2CCC[C@H]2C(=O)N2CC[C@H](C(=O)O)C2)[C@@H](C)CC)NC(=O)[C@H]([C@@H](C)CC)NC(=O)[C@@H]2C[C@@H]3CCCC[C@@H]3N2C(=O)[C@@H]2CCCN2C(=O)[C@H](CC(C)C)NC(=O)[C@H](CO)NC(=O)[C@H](CCCNC(=N)N)NC(=O)[C@H](CO)NC1=O) [Example 456: ((N-Me)G)-IC+SRSLP-(Oic)-I-(Pen)+IP-((S)-Pyrrolidine-3-carboxylic acid)-OH] | 39 | 30
X14-ICSRSLP[Oic]I[Pen]IPD-OH (disulfide 2-10; SMILES CC[C@H](C)[C@H](NC(=O)CN1CC(=O)NC1=O)C(=O)N[C@H]1CSSC(C)(C)[C@@H](C(=O)N[C@H](C(=O)N2CCC[C@H]2C(=O)N[C@@H](CC(=O)O)C(=O)O)[C@@H](C)CC)NC(=O)[C@H]([C@@H](C)CC)NC(=O)[C@@H]2C[C@@H]3CCCC[C@@H]3N2C(=O)[C@@H]2CCCN2C(=O)[C@H](CC(C)C)NC(=O)[C@H](CO)NC(=O)[C@H](CCCNC(=N)N)NC(=O)[C@H](CO)NC1=O) [Example 457: ((2,4-dioxoimidazolidin-1-yl)acetic acid)-IC+SRSLP-(Oic)-I-(Pen)+IPD-OH] | 20 | 5
AICSRSLP[Oic]I[Pen]IP[βDap]-OH (disulfide 3-11; also: Dap at position 14 joined through its 3-amino group) [Example 458: AIC+SRSLP-(Oic)-I-(Pen)+IP-(*Dap)-OH] | 250 | 100
[Nip(3R)]ICSRSLP[Oic]I[Pen]I-OH (disulfide 3-11; N-terminus assumed; SMILES CC[C@H](C)[C@H](NC(=O)[C@H]1NC(=O)[C@H]([C@@H](C)CC)NC(=O)[C@@H]2C[C@@H]3CCCC[C@@H]3N2C(=O)[C@@H]2CCCN2C(=O)[C@H](CC(C)C)NC(=O)[C@H](CO)NC(=O)[C@H](CCCNC(=N)N)NC(=O)[C@H](CO)NC(=O)[C@@H](NC(=O)[C@@H](NC(=O)[C@@H]2CCCNC2)[C@@H](C)CC)CSSC1(C)C)C(=O)O) [Example 459: ((R)-Piperidine-3-carboxylic acid)-IC+SRSLP-(Oic)-I-(Pen)+I-OH] | 180 | 51
[X11]ICSRSLP[Oic]I[Pen]I-OH (disulfide 3-11; N-terminus assumed; SMILES CC[C@H](C)[C@H](NC(=O)[C@H]1NC(=O)[C@H]([C@@H](C)CC)NC(=O)[C@@H]2C[C@@H]3CCCC[C@@H]3N2C(=O)[C@@H]2CCCN2C(=O)[C@H](CC(C)C)NC(=O)[C@H](CO)NC(=O)[C@H](CCCNC(=N)N)NC(=O)[C@H](CO)NC(=O)[C@@H](NC(=O)[C@@H](NC(=O)[C@H]2CCCNC2)[C@@H](C)CC)CSSC1(C)C)C(=O)O) [Example 460: ((S)-Piperidine-3-carboxylic acid)-IC+SRSLP-(Oic)-I-(Pen)+I-OH] | 210 | 69
[NMeA]ICSRSLP[Oic]I[Pen]IP[(N-Benzyl)D]-NH2 (disulfide 3-11) [Example 462: ((N-Me)A)-IC+SRSLP-(Oic)-I-(Pen)+IP-((N-Benzyl)D)-NH2] | 160 | 150
[Sar]ICSRSLP[Oic]I[Pen]IPDK-OH (disulfide 3-11; N-terminus assumed; SMILES CC[C@H](C)[C@H](NC(=O)CNC)C(=O)N[C@H]1CSSC(C)(C)[C@@H](C(=O)N[C@H](C(=O)N2CCC[C@H]2C(=O)N[C@@H](CC(=O)O)C(=O)N[C@@H](CCCCN)C(=O)O)[C@@H](C)CC)NC(=O)[C@H]([C@@H](C)CC)NC(=O)[C@@H]2C[C@@H]3CCCC[C@@H]3N2C(=O)[C@@H]2CCCN2C(=O)[C@H](CC(C)C)NC(=O)[C@H](CO)NC(=O)[C@H](CCCNC(=N)N)NC(=O)[C@H](CO)NC1=O) [Example 463: ((N-Me)G)-IC+SRSLP-(Oic)-I-(Pen)+IPDK-OH] | 190 | 100
[Sar]ICSRSLP[Oic]I[Pen]IPGD-OH (disulfide 3-11; N-terminus assumed; SMILES CC[C@H](C)[C@H](NC(=O)CNC)C(=O)N[C@H]1CSSC(C)(C)[C@@H](C(=O)N[C@H](C(=O)N2CCC[C@H]2C(=O)NCC(=O)N[C@@H](CC(=O)O)C(=O)O)[C@@H](C)CC)NC(=O)[C@H]([C@@H](C)CC)NC(=O)[C@@H]2C[C@@H]3CCCC[C@@H]3N2C(=O)[C@@H]2CCCN2C(=O)[C@H](CC(C)C)NC(=O)[C@H](CO)NC(=O)[C@H](CCCNC(=N)N)NC(=O)[C@H](CO)NC1=O) [Example 464: ((N-Me)G)-IC+SRSLP-(Oic)-I-(Pen)+IPGD-OH] | 94 | 120
[Sar]ICSRSLP[Oic]I[Pen]IPD[Ahx]-OH (disulfide 3-11; N-terminus assumed; SMILES CC[C@H](C)[C@H](NC(=O)CNC)C(=O)N[C@H]1CSSC(C)(C)[C@@H](C(=O)N[C@H](C(=O)N2CCC[C@H]2C(=O)N[C@@H](CC(=O)O)C(=O)NCCCCCC(=O)O)[C@@H](C)CC)NC(=O)[C@H]([C@@H](C)CC)NC(=O)[C@@H]2C[C@@H]3CCCC[C@@H]3N2C(=O)[C@@H]2CCCN2C(=O)[C@H](CC(C)C)NC(=O)[C@H](CO)NC(=O)[C@H](CCCNC(=N)N)NC(=O)[C@H](CO)NC1=O) [Example 465: ((N-Me)G)-IC+SRSLP-(Oic)-I-(Pen)+IPD-(Ahx)-OH] | 72 | 140
[Sar]ICSRSLP[Oic]I[Pen]IPDD-OH (disulfide 3-11; N-terminus assumed; SMILES CC[C@H](C)[C@H](NC(=O)CNC)C(=O)N[C@H]1CSSC(C)(C)[C@@H](C(=O)N[C@H](C(=O)N2CCC[C@H]2C(=O)N[C@@H](CC(=O)O)C(=O)N[C@@H](CC(=O)O)C(=O)O)[C@@H](C)CC)NC(=O)[C@H]([C@@H](C)CC)NC(=O)[C@@H]2C[C@@H]3CCCC[C@@H]3N2C(=O)[C@@H]2CCCN2C(=O)[C@H](CC(C)C)NC(=O)[C@H](CO)NC(=O)[C@H](CCCNC(=N)N)NC(=O)[C@H](CO)NC1=O) [Example 466: ((N-Me)G)-IC+SRSLP-(Oic)-I-(Pen)+IPDD-OH] | 17.6 | 72
[Sar]ICSRSLP[Oic]I[Pen]IP[Dap]-OH (disulfide 3-11; also: Dap at position 14 joined through its 3-amino group) [Example 467: ((N-Me)G)-IC+SRSLP-(Oic)-I-(Pen)+IP-(*Dap)-OH] | 170 | 70
